Values of other authors in paper PMC4463550.

Key:
PAD4 (Homo sapiens) = PAD4 (Homo sapiens) (UniProt Q9UM07)
Cys647 = Cys647 (UniProt position 647, LGEVHCGTNVR); assay: chemical modification; details: calcium state not stated
His471 = His471 (UniProt position 471, WLSVGHVDEFL); details: PAD4; state not stated
Cys645 = Cys645 (UniProt position 645, HGEVHCGTNVR); assay: chemical modification; details: PAD4, no substrate; calcium state not stated

PAD4, sequence (Q9UM07 whole entry): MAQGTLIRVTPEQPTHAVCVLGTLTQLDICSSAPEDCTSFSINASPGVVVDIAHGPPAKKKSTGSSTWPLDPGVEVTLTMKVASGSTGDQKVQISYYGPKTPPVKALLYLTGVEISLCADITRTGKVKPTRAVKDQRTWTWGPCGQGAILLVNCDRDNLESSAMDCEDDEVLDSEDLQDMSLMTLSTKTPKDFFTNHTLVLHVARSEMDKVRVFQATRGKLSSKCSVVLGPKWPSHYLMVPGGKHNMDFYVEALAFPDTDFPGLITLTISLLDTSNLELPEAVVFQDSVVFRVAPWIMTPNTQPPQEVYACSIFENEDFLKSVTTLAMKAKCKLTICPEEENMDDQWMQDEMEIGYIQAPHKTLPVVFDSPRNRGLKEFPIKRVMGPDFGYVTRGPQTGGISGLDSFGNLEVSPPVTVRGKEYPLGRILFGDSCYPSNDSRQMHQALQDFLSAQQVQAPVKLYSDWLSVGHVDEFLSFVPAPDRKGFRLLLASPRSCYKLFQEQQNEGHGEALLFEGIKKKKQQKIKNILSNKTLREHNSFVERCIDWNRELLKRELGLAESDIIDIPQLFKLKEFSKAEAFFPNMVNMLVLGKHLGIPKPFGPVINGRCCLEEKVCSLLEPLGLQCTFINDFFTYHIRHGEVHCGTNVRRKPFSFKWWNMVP

For PAD4 (from UniProt Q9UM07), the Kd (PAD4 (Homo sapiens)) is listed as 450 nM.

In the case of “Protein arginine deiminase 2 (PAD2) (Homo sapiens)”, the pKa (Cys647; PAD2, no substrate) is listed as 8.2 and the pKa (Cys647; PAD2 reacting with the substrate-mimicking, positively charged inactivator 2-chloroacetamidine) is listed as 7.2.

For “Protein arginine deiminase 4 (PAD4) (Homo sapiens)”, the pKa (His471) is given as “∼7.3” and the pKa (Cys645) is given as “≈ 8.3”.
